Each block holds one substance with its values, some of them ahead of it.
Key:
Format in all cases: physicochemical
[1] = Stability of salmon calcitonin in coating on flood-coated microneedle arrays stored at 40° C./96% RH (HPLC); conditions: salmon calcitonin 5 mg/mL in PBS
Experimental: (§1) The protein or polypeptide content in the formulation coated on the microneedle arrays was determined using an Agilent 1100 HPLC system (Agilent Technologies, Wilmington, Del.) equipped with a binary pump, well-plated thermostated autosampler, thermostated column compartment, and a diode array UV detector. A Zorbax 300SB-C8 column (Agilent Technologies, Wilmington, Del.) having a 5 μm particle size and 2.1×150 mm inner diameter was used for the separations. The column was maintained at 50° C. The mobile phase consisted of two eluents. Eluent A was 0.1% TFA (trifluoroacetic acid) in water and eluent B was 0.1% TFA in acetonitrile (Spectrum Chemical, New Brunswick, N.J.). A linear gradient from 80/20 to 50/50 (A/B) was applied over 30 minutes. The flow rate was 0.4 mL/minute and the UV detection wavelength was set at 214 nm. The total run time was 34 minutes and the sample injection volume was 15 μL.
(§2) A sample formulation containing 5 mg/mL of salmon calcitonin and 12 mg/mL of L-histidine monohydrochloride (His-HCl) in PBS was prepared. The pH of the sample formulation was 5.5. A control formulation was also prepared containing 5 mg/mL of salmon calcitonin in PBS. […] The pH of the control formulation was 6.0-6.5. Microneedle arrays were coated with either the sample or the control formulation. The coating was applied by dropwise addition of 50 μL of the formulation to the portion of the array defined by the octagon shaped pattern of microneedles. The flood coated arrays (both sample and control formulation coated) were dried in an oven at 35° C. for about 15 hours.
(§3) After drying, the coated arrays were placed in a storage chamber that was maintained at 40° C. and 96% relative humidity (RH). The salmon calcitonin content of the coated arrays was determined following storage in the chamber for 1, 3, 7, and 14 days. At the designated time point, an array was taken from the chamber and washed with PBS (1 mL) to remove the coating from the array. An aliquot of the resulting wash solution was analyzed for salmon calcitonin content using the HPLC method described above. Reference standards were prepared by measuring the initial salmon calcitonin content of freshly coated arrays (both sample and control formulation coated). The arrays used as reference standards were stored in a refrigerator at about 4° C. and analyzed within one day of being prepared. The percentage of undegraded salmon calcitonin remaining in the coating at each time point was determined by measuring the peak area for salmon calcitonin in the selected coating and dividing it by the peak area measured for salmon calcitonin in the corresponding reference standard.
The same procedure as described in Example 3 was used with the exception that the sample formulation contained 12 mg/mL of L-arginine hydrochloride, instead of L-histidine monohydrochloride. The pH of the sample formulation was 6.0-6.5.

[2] = Stability of lysozyme in coating on flood-coated microneedle arrays stored at 40° C./96% RH (HPLC); conditions: lysozyme 10 mg/mL in PBS
Experimental: as §1
as §2, with “containing 10” for “containing 5”, “of lysozyme” for “of salmon calcitonin”, “was 5.5-6.0.” for “was 5.5.”, “was 6.5.” for “was 6.0-6.5.”
as §3, with “lysozyme” for “salmon calcitonin”, “(2” for “(1”, “lysozyme” for “initial salmon calcitonin”
The same procedure as described in Example 7 was used with the exception that the sample formulation contained 12 mg/mL of L-arginine hydrochloride, instead of L-histidine monohydrochloride. The pH of the sample formulation was 6.5.

[3] = Stability of PTH in coating on flood-coated microneedle arrays stored at 40° C./96% RH (HPLC); conditions: PTH 10 mg/mL in PBS
Experimental: as §1
Microneedle arrays were coated with either the sample or the control formulation. The coating was applied by dropwise addition of 50 μL of the formulation to the portion of the array defined by the octagon shaped pattern of microneedles. The flood coated arrays (both sample and control formulation coated) were dried in an oven at 35° C. for about 15 hours.
After drying, the coated arrays were placed in a storage chamber that was maintained at 40° C. and 96% relative humidity (RH). […] The arrays used as reference standards were stored in a refrigerator at about 4° C. and analyzed within one day of being prepared.

[4] = Amino Acid L-Arginine (Arg-HCl 12 mg/mL), Day 1 at 40° C./96% RH
[5] = Amino Acid L-Arginine (Arg-HCl 12 mg/mL), Day 3 at 40° C./96% RH
[6] = Amino Acid L-Arginine (Arg-HCl 12 mg/mL), Day 7 at 40° C./96% RH
[7] = Amino Acid L-Arginine (Arg-HCl 12 mg/mL), Day 14 at 40° C./96% RH
[8] = Amino Acid L-Arginine (Arg-HCl 12 mg/mL), Initial
[9] = Amino Acid L-Histidine (His-HCl 12 mg/mL), Day 1 at 40° C./96% RH
[10] = Amino Acid L-Histidine (His-HCl 12 mg/mL), Day 3 at 40° C./96% RH
[11] = Amino Acid L-Histidine (His-HCl 12 mg/mL), Day 7 at 40° C./96% RH
[12] = Amino Acid L-Histidine (His-HCl 12 mg/mL), Day 14 at 40° C./96% RH
[13] = Amino Acid L-Histidine (His-HCl 12 mg/mL), Initial
[14] = Amino Acid None (control), Day 1 at 40° C./96% RH
[15] = Amino Acid None (control), Day 3 at 40° C./96% RH
[16] = Amino Acid None (control), Day 7 at 40° C./96% RH
[17] = Amino Acid None (control), Day 14 at 40° C./96% RH
[18] = Amino Acid None (control), Initial

Percent of Initial Salmon Calcitonin Content in the Coating [1, 4]: 5.8% | Percent of Initial Salmon Calcitonin Content in the Coating [1, 5]: 0.3% | Percent of Initial Salmon Calcitonin Content in the Coating [1, 6]: 0% | Percent of Initial Salmon Calcitonin Content in the Coating [1, 7]: 0% | Percent of Initial Salmon Calcitonin Content in the Coating [1, 8]: 100% | Percent of Initial Salmon Calcitonin Content in the Coating [1, 9]: 30.3% | Percent of Initial Salmon Calcitonin Content in the Coating [1, 10]: 31.7% | Percent of Initial Salmon Calcitonin Content in the Coating [1, 11]: 7.5% | Percent of Initial Salmon Calcitonin Content in the Coating [1, 12]: 2.7% | Percent of Initial Salmon Calcitonin Content in the Coating [1, 13]: 100% | Percent of Initial Salmon Calcitonin Content in the Coating [1, 14]: 21.5% | Percent of Initial Salmon Calcitonin Content in the Coating [1, 15]: 0.9% | Percent of Initial Salmon Calcitonin Content in the Coating [1, 16]: 0.1% | Percent of Initial Salmon Calcitonin Content in the Coating [1, 17]: 0% | Percent of Initial Salmon Calcitonin Content in the Coating [1, 18]: 100%
Substance: Salmon calcitonin

Substance: lysozyme
Percent of Initial Lysozyme Content in the Coating [2, 4]: 52.6% | Percent of Initial Lysozyme Content in the Coating [2, 5]: 33.1% | Percent of Initial Lysozyme Content in the Coating [2, 6]: 22.4% | Percent of Initial Lysozyme Content in the Coating [2, 7]: 23.0% | Percent of Initial Lysozyme Content in the Coating [2, 8]: 100% | Percent of Initial Lysozyme Content in the Coating [2, 9]: 100.0% | Percent of Initial Lysozyme Content in the Coating [2, 10]: 80.6% | Percent of Initial Lysozyme Content in the Coating [2, 11]: 60.1% | Percent of Initial Lysozyme Content in the Coating [2, 12]: 53.3% | Percent of Initial Lysozyme Content in the Coating [2, 13]: 100% | Percent of Initial Lysozyme Content in the Coating [2, 14]: 26.9% | Percent of Initial Lysozyme Content in the Coating [2, 15]: 4.4% | Percent of Initial Lysozyme Content in the Coating [2, 16]: 1.9% | Percent of Initial Lysozyme Content in the Coating [2, 17]: 1.9% | Percent of Initial Lysozyme Content in the Coating [2, 18]: 100%

Substance: parathyroid hormone (1-34) (human) [PTH]
Percent of Initial PTH Content in the Coating [3, 4]: 3.5% | Percent of Initial PTH Content in the Coating [3, 5]: 0.8% | Percent of Initial PTH Content in the Coating [3, 6]: 0.4% | Percent of Initial PTH Content in the Coating [3, 7]: 0% | Percent of Initial PTH Content in the Coating [3, 8]: 100% | Percent of Initial PTH Content in the Coating [3, 9]: 85.2% | Percent of Initial PTH Content in the Coating [3, 10]: 60.3% | Percent of Initial PTH Content in the Coating [3, 11]: 23.1% | Percent of Initial PTH Content in the Coating [3, 13]: 100% | Percent of Initial PTH Content in the Coating [3, 14]: 1.3% | Percent of Initial PTH Content in the Coating [3, 15]: 0% | Percent of Initial PTH Content in the Coating [3, 16]: 0% | Percent of Initial PTH Content in the Coating [3, 17]: 0% | Percent of Initial PTH Content in the Coating [3, 18]: 100%

— patent publication US10154957B2, “Microneedle device having a peptide therapeutic agent and an amino acid and methods of making and using the same” (3M INNOVATIVE PROPERTIES COMPANY, priority 2011, dated 2018)
